In patent publication US20050123978:

Molecular target: T1, recombinant ANX7 (human annexin VII) (UniProt P20073)
T1 sequence: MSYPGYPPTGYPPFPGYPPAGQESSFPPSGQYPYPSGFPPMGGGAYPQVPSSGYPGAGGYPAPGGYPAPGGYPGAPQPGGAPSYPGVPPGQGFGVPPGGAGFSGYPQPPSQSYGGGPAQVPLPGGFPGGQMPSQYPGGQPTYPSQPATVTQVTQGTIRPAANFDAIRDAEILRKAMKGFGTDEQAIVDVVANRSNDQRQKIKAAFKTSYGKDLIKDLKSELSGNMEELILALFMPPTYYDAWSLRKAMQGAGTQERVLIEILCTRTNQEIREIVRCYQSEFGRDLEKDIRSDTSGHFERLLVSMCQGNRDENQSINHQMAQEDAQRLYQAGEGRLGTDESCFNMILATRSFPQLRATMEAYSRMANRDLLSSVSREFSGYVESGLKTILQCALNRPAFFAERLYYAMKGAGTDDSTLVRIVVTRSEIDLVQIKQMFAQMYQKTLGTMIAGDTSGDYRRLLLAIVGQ

Row | Substance | molar ratio of ^32[P]/ANX7 protein after a 30-minute incubation | in vitro phosphorylation of recombinant ANX7
1 | cGMP-dependent protein kinase | PKG (molar ratio=1.0) | –
2 | Casein kinase I | – | no activity was detected when recombinant ANX7 was exposed to casein kinase 1, casein kinase II, or Ca^2+/calmodulin kinase II
3 | protein kinase C | PKC (molar ratio=2.0) | –
4 | tyrosine kinase p60^src | p60^src (molar ratio=1.0) | –
5 | Ca^2+/calmodulin Kinase II | – | no activity was detected when recombinant ANX7 was exposed to casein kinase 1, casein kinase II, or Ca^2+/calmodulin kinase II
6 | epidermal growth factor receptor kinase | only five were active ... EGFR kinase (molar ratio not determined) | –
7 | casein Kinase II | – | no activity was detected when recombinant ANX7 was exposed to casein kinase 1, casein kinase II, or Ca^2+/calmodulin kinase II
8 | cAMP-dependent protein Kinase | PKA (molar ratio=1.0) | –
